Results from PMC11210195.
Values belong to the substance of their own block, whether it stands above or below them.

Experiments:
[1] = target: TRIM21 PRYSPRY domain (human) (UniProt P19474); assay: SPR; Biacore T200, C1 chip, 25 °C, HBS-EP+; biotinylated PRYSPRY domain captured via monovalent streptavidin at low density (about 3 RU); (antibody) Fc constructs injected in five two-fold dilutions from 200 nM; global monophasic fit, affinity mode
[2] = target: anti-AAV2 capsid antibody A20 WT (human); assay: SPR; A20 antibody variants and TRIM21-CC-PS; orientation not told in the text (Supplementary Figure S8); apparent (avidity) constant
Chain of anti-AAV2 capsid antibody A20 WT (human) (heavy, as listed by the source, chain 1 of 2): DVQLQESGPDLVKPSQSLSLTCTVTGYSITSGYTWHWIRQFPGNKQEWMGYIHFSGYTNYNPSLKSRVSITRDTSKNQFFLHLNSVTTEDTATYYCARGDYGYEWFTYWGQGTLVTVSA
Chain of anti-AAV2 capsid antibody A20 WT (human) (light, as listed by the source, chain 2 of 2): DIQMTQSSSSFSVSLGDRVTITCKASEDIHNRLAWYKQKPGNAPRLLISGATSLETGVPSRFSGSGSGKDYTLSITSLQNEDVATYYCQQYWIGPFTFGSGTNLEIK

mAb1 HH (human) = assay: SPR; antibody Fc variants captured via anti-human Fab-kappa ligand at low density (approx. 8-10 RU); TRIM21-CC-PS injected, two-fold series from 100 nM, 180 s association, 600 s dissociation; 25°C, HBS-EP+; 1:1 fit; apparent (avidity) constants
mAb1 YTE (human) = assay: as above
mAb1 WT-AAA (human) = assay: mass photometry; TRIM21-CC-PS incubated 10 min with antibody Fc variants at different molar ratios, low nM; PBS pH 7.4, room temperature
[3] = target: mAb1 HH-AAA (asymmetrical human IgG1, one Fc heavy chain HH, the other AAA) (human); assay: SPR; Biacore T200, C1 chip, 25 °C, HBS-EP+; (antibody) Fc variants captured at low density (about 8-10 RU) via anti-human Fab-kappa nanobody or anti-PGLALA F(ab')2; TRIM21-CC-PS injected 180 s in two-fold dilutions from 100, 400, 500 or 1000 nM; global 1:1 Langmuir fit; avidity (apparent) mode for symmetrical, affinity mode for asymmetrical Fc variants
[4] = target: mAb1 YTE (human IgG1, M252Y, S254T, T256E) (human); assay: as above
[5] = target: mAb1 HH (human IgG1, T307H, N434H) (human); assay: as above
[6] = target: anti-AAV2 capsid antibody A20 WT (bivalent, human IgG1 Fc WT) (human); assay: as above
Chain of anti-AAV2 capsid antibody A20 WT (bivalent, human IgG1 Fc WT) (human) (heavy, as listed by the source, chain 1 of 2): as the sequence (heavy, as listed by the source, chain 1 of 2) above
Chain of anti-AAV2 capsid antibody A20 WT (bivalent, human IgG1 Fc WT) (human) (light, as listed by the source, chain 2 of 2): as the sequence (light, as listed by the source, chain 2 of 2) above

[7] = target: mAb1 WT-AAA (asymmetrical human IgG1, one Fc heavy chain H310A, H433A, Y436A) (human); assay: as above
[8] = target: mAb1 YTE-AAA (asymmetrical human IgG1, one Fc heavy chain YTE, the other AAA) (human); assay: as above

Chain of TRIM21 PRYSPRY domain (human) (P19474 277-475): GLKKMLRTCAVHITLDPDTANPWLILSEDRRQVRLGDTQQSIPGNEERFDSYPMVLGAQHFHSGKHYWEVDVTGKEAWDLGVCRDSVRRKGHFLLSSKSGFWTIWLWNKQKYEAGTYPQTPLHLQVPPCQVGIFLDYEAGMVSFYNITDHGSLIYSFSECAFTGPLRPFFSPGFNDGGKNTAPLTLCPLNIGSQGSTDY
Chain of TRIM21-coiled-coil-PRYSPRY (TRIM21-CC-PS) (P19474 128-475): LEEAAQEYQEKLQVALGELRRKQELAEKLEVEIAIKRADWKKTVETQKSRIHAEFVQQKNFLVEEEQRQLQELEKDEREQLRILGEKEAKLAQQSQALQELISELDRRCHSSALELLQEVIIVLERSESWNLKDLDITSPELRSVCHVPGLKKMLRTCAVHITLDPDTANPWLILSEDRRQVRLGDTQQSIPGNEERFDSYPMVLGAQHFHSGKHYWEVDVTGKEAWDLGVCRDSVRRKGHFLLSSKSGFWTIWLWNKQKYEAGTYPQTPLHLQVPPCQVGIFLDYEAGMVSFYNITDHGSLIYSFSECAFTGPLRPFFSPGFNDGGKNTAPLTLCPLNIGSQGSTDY
Chain of TRIM21-coiled-coil-PRYSPRY (P19474 128-475): as above

- Kd [1]: 25.9 nM
- koff [1]: 0.132 s⁻¹
- kon [1]: 5.09e+06 M⁻¹ s⁻¹
Substance: Fc WT (Fc-only variant, human IgG1 core hinge-CH2-CH3, wild type) (domain or fragment)

Substance: TRIM21-coiled-coil-PRYSPRY (TRIM21-CC-PS) (from UniProt P19474-1 128-475) (domain or fragment)
- Kd [2]: 0.7 nM
- avidity enhancement (K (D,AFFINITY)/K (D,AVIDITY)) (mAb1 HH (human)): 72 fold
- fold faster kinetic rates against YTE (mAb1 HH (human)): 5 fold
- fold weaker against the WT avidity (mAb1 HH (human)): 2 fold
- avidity enhancement (K (D,AFFINITY)/K (D,AVIDITY)) (mAb1 YTE (human)): 50 fold
- fold weaker against the WT avidity (mAb1 YTE (human)): 2 fold
- percent complexed (mAb1 WT-AAA (human)): 2%

- Kd [3]: 474 nM
- koff [3]: 0.437 s⁻¹
- kon [3]: 921000 M⁻¹ s⁻¹
- Kd [4]: 1.47 nM
- koff [4]: 0.00127 s⁻¹
- kon [4]: 865000 M⁻¹ s⁻¹
- Kd [5]: 1.37 nM
- koff [5]: 0.00651 s⁻¹
- kon [5]: 4.74e+06 M⁻¹ s⁻¹
- koff [6]: 0.000983 s⁻¹
- kon [6]: 1.44e+06 M⁻¹ s⁻¹
- Kd [7]: 116 nM
- koff [7]: 0.129 s⁻¹
- kon [7]: 1.1e+06 M⁻¹ s⁻¹
- Kd [8]: 220 nM
- koff [8]: 0.167 s⁻¹
- kon [8]: 758000 M⁻¹ s⁻¹
Substance: TRIM21-coiled-coil-PRYSPRY (from UniProt P19474-1 128-475) (domain or fragment)

- Kd [1]: 16.6 nM
- koff [1]: 0.102 s⁻¹
- kon [1]: 6.14e+06 M⁻¹ s⁻¹
Substance: Briakinumab (antibody)

- Kd [1]: 22.7 nM
- koff [1]: 0.0884 s⁻¹
- kon [1]: 3.89e+06 M⁻¹ s⁻¹
Substance: Ustekinumab (antibody)
